Test results from the supplement of paper PMC11316812.
± gives the standard deviation of the averaged measurements.

Tests used:
MCF7 = assay: percentage of EdU-negative (G0-arrested) nuclei per well, 72 h; higher = more G0 arrest; details: reference: sequence is the full UniProt precursor, the tested protein was the secreted form or ectodomain
hTERT-HMEC = assay: as above; details: reference: sequence is the full UniProt precursor, the tested protein was the secreted form or ectodomain
[1] = protein concentration 0.0225 µM
[2] = protein concentration 0.00685714 µM
[3] = protein concentration 0.0685714 µM
[4] = protein concentration 0.0357143 µM
[5] = protein concentration 0.357143 µM
[6] = protein concentration 0.02025 µM
[7] = protein concentration 0.2025 µM
[8] = protein concentration 0.02859 µM
[9] = protein concentration 0.2859 µM
[10] = protein concentration 0.0257143 µM
[11] = protein concentration 0.257143 µM
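Further: secreted proteins added to cultured cells, EdU pulse at the end, nuclei found by Hoechst imaging, EdU status from nuclear versus surrounding ring intensity ratio, PBS as neutral control.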

## MILIPRMLLVLFLLLPILSSAKAQVNPAICRYPLGMSGGQIPDEDITASSQWSESTAAKYGRLDSEEGDGAWCPEIPVEPDDLKEFLQIDLHTLHFITLVGTQGRHAGGHGIEFAPMYKINYSRDGTRWISWRNRHGKQVLDGNSNPYDIFLKDLEPPIVARFVRFIPVTDHSMNVCMRVELYGCVWLDGLVSYNAPAGQQFVLPGGSIIYLNDSVYDGAVGYSMTEGLGQLTDGVSGLDDFTQTHEYHVWPGYDYVGWRNESATNGYIEIMFEFDRIRNFTTMKVHCNNMFAKGVKIFKEVQCYFRSEASEWEPNAISFPLVLDDVNPSARFVTVPLHHRMASAIKCQYHFADTWMMFSEITFQSDAAMYNNSEALPTSPMAPTTYDPMLKVDDSNTRILIGCLVAIIFILLAIIVIILWRQFWQKMLEKASRRMLDDEMTVSLSLPSDSSMFNNNRSSSPSEQGSNSTYDRIFPLRPDYQEPSRLIRKLPEFAPGEEESGCSGVVKPVQPSGPEGVPHYAEADIVNLQGVTGGNTYSVPAVTMDLLSGKDVAVEEFPRKLLTFKEKLGEGQFGEVHLCEVEGMEKFKDKDFALDVSANQPVLVAVKMLRADANKNARNDFLKEIKIMSRLKDPNIIHLLAVCITDDPLCMITEYMENGDLNQFLSRHEPPNSSSSDVRTVSYTNLKFMATQIASGMKYLSSLNFVHRDLATRNCLVGKNYTIKIADFGMSRNLYSGDYYRIQGRAVLPIRWMSWESILLGKFTTASDVWAFGVTLWETFTFCQEQPYSQLSDEQVIENTGEFFRDQGRQTYLPQPAICPDSVYKLMLSCWRRDTKNRPSFQEIHLLLLQQGDE
MCF7; [1]
  percentage of EdU-negative: 26.1 ± 1%
MCF7; protein concentration 0.225 µM
  percentage of EdU-negative: 25.9 ± 1.3%
hTERT-HMEC; [1]
  percentage of EdU-negative: 4.96 ± 0.44%
hTERT-HMEC; protein concentration 0.225 µM
  percentage of EdU-negative: 5.43 ± 1.3%

## MAAVRGAPLLSCLLALLALCPGGRPQTVLTDDEIEEFLEGFLSELEPEPREDDVEAPPPPEPTPRVRKAQAGGKPGKRPGTAAEVPPEKTKDKGKKGKKDKGPKVPKESLEGSPRPPKKGKEKPPKATKKPKEKPPKATKKPKEKPPKATKKPKEKPPKATKKPPSGKRPPILAPSETLEWPLPPPPSPGPEELPQEGGAPLSNNWQNPGEETHVEAREHQPEPEEETEQPTLDYNDQIEREDYEDFEYIRRQKQPRPPPSRRRRPERVWPEPPEEKAPAPAPEERIEPPVKPLLPPLPPDYGDGYVIPNYDDMDYYFGPPPPQKPDAERQTDEEKEELKKPKKEDSSPKEETDKWAVEKGKDHKEPRKGEELEEEWTPTEKVKCPPIGMESHRIEDNQIRASSMLRHGLGAQRGRLNMQTGATEDDYYDGAWCAEDDARTQWIEVDTRRTTRFTGVITQGRDSSIHDDFVTTFFVGFSNDSQTWVMYTNGYEEMTFHGNVDKDTPVLSELPEPVVARFIRIYPLTWNGSLCMRLEVLGCSVAPVYSYYAQNEVVATDDLDFRHHSYKDMRQLMKVVNEECPTITRTYSLGKSSRGLKIYAMEISDNPGEHELGEPEFRYTAGIHGNEVLGRELLLLLMQYLCREYRDGNPRVRSLVQDTRIHLVPSLNPDGYEVAAQMGSEFGNWALGLWTEEGFDIFEDFPDLNSVLWGAEERKWVPYRVPNNNLPIPERYLSPDATVSTEVRAIIAWMEKNPFVLGANLNGGERLVSYPYDMARTPTQEQLLAAAMAAARGEDEDEVSEAQETPDHAIFRWLAISFASAHLTLTEPYRGGCQAQDYTGGMGIVNGAKWNPRTGTINDFSYLHTNCLELSFYLGCDKFPHESELPREWENNKEALLTFMEQVHRGIKGVVTDEQGIPIANATISVSGINHGVKTASGGDYWRILNPGEYRVTAHAEGYTPSAKTCNVDYDIGATQCNFILARSNWKRIREIMAMNGNRPIPHIDPSRPMTPQQRRLQQRRLQHRLRLRAQMRLRRLNATTTLGPHTVPPTLPPAPATTLSTTIEPWGLIPPTTAGWEESETETYTEVVTEFGTEVEPEFGTKVEPEFETQLEPEFETQLEPEFEEEEEEEKEEEIATGQAFPFTTVETYTVNFGDF [Q8IUX7]
MCF7; [2]
  percentage of EdU-negative: 24.8 ± 1.1%
MCF7; [3]
  percentage of EdU-negative: 28.5 ± 0.34%
hTERT-HMEC; [2]
  percentage of EdU-negative: 4.79 ± 0.43%
hTERT-HMEC; [3]
  percentage of EdU-negative: 11.5 ± 0.62%

## MVAPKSHTDDWAPGPFSSKPQRSQLQIFSSVLQTSLLFLLMGLRASGKDSAPTVVSGILGGSVTLPLNISVDTEIENVIWIGPKNALAFARPKENVTIMVKSYLGRLDITKWSYSLCISNLTLNDAGSYKAQINQRNFEVTTEEEFTLFVYEQLQEPQVTMKSVKVSENFSCNITLMCSVKGAEKSVLYSWTPREPHASESNGGSILTVSRTPCDPDLPYICTAQNPVSQRSSLPVHVGQFCTDPGASRGGTTGETVVGVLGEPVTLPLALPACRDTEKVVWLFNTSIISKEREEAATADPLIKSRDPYKNRVWVSSQDCSLKISQLKIEDAGPYHAYVCSEASSVTSMTHVTLLIYRRLRKPKITWSLRHSEDGICRISLTCSVEDGGNTVMYTWTPLQKEAVVSQGESHLNVSWRSSENHPNLTCTASNPVSRSSHQFLSENICSGPERNTKLWIGLFLMVCLLCVGIFSWCIWKRKGRCSVPAFCSSQAEAPADTPEPTAGHTLYSVLSQGYEKLDTPLRPARQQPTPTSDSSSDSNLTTEEDEDRPEVHKPISGRYEVFDQVTQEGAGHDPAPEGQADYDPVTPYVTEVESVVGENTMYAQVFNLQGKTPVSQKEESSATIYCSIRKPQVVPPPQQNDLEIPESPTYENFT [Q9HBG7]
MCF7; protein concentration 0.02 µM
  percentage of EdU-negative: 25.2 ± 0.84%
MCF7; protein concentration 0.2 µM
  percentage of EdU-negative: 29.3 ± 0.77%
hTERT-HMEC; protein concentration 0.02 µM
  percentage of EdU-negative: 4.82 ± 0.27%
hTERT-HMEC; protein concentration 0.2 µM
  percentage of EdU-negative: 7.12 ± 0.12%

## MLCLLLTLGVALVCGVPAMDIPQTKQDLELPKLAGTWHSMAMATNNISLMATLKAPLRVHITSLLPTPEDNLEIVLHRWENNSCVEKKVLGEKTENPKKFKINYTVANEATLLDTDYDNFLFLCLQDTTTPIQSMMCQYLARVLVEDDEIMQGFIRAFRPLPRHLWYLLDLKQMEEPCRF
MCF7; [4]
  percentage of EdU-negative: 24.5 ± 2.6%
MCF7; [5]
  percentage of EdU-negative: 23 ± 1.3%
hTERT-HMEC; [4]
  percentage of EdU-negative: 5.01 ± 0.051%
hTERT-HMEC; [5]
  percentage of EdU-negative: 5.65 ± 0.33%

## MVRLAAELLLLLGLLLLTLHITVLRGSGAADGPDAAAGNASQAQLQNNLNVGSDTTSETSFSLSKEAPREHLDHQAAHQPFPRPRFRQETGHPSLQRDFPRSFLLDLPNFPDLSKADINGQNPNIQVTIEVVDGPDSEADKDQHPENKPSWSVPSPDWRAWWQRSLSLARANSGDQDYKYDSTSDDSNFLNPPRGWDHTAPGHRTFETKDQPEYDSTDGEGDWSLWSVCSVTCGNGNQKRTRSCGYACTATESRTCDRPNCPGIEDTFRTAATEVSLLAGSEEFNATKLFEVDTDSCERWMSCKSEFLKKYMHKVMNDLPSCPCSYPTEVAYSTADIFDRIKRKDFRWKDASGPKEKLEIYKPTARYCIRSMLSLESTTLAAQHCCYGDNMQLITRGKGAGTPNLISTEFSAELHYKVDVLPWIICKGDWSRYNEARPPNNGQKCTESPSDEDYIKQFQEAREY [B1AKI9]
MCF7; [6]
  percentage of EdU-negative: 25.3 ± 2.1%
MCF7; [7]
  percentage of EdU-negative: 24.1 ± 0.87%
hTERT-HMEC; [6]
  percentage of EdU-negative: 4.82 ± 0.37%
hTERT-HMEC; [7]
  percentage of EdU-negative: 5.13 ± 0.59%

## MKSVLLLTTLLVPAHLVAAWSNNYAVDCPQHCDSSECKSSPRCKRTVLDDCGCCRVCAAGRGETCYRTVSGMDGMKCGPGLRCQPSNGEDPFGEEFGICKDCPYGTFGMDCRETCNCQSGICDRGTGKCLKFPFFQYSVTKSSNRFVSLTEHDMASGDGNIVREEVVKENAAGSPVMRKWLNPR [Q9NQ30]
MCF7; [8]
  percentage of EdU-negative: 24.2 ± 1%
MCF7; [9]
  percentage of EdU-negative: 25.25 ± 0.057%
hTERT-HMEC; [8]
  percentage of EdU-negative: 4.84 ± 1.4%
hTERT-HMEC; [9]
  percentage of EdU-negative: 5.91 ± 0.64%

## MAPAMESPTLLCVALLFFAPDGVLAVPQKPKVSLNPPWNRIFKGENVTLTCNGNNFFEVSSTKWFHNGSLSEETNSSLNIVNAKFEDSGEYKCQHQQVNESEPVYLEVFSDWLLLQASAEVVMEGQPLFLRCHGWRNWDVYKVIYYKDGEALKYWYENHNISITNATVEDSGTYYCTGKVWQLDYESEPLNITVIKAPREKYWLQFFIPLLVVILFAVDTGLFISTQQQVTFLLKIKRTRKGFRLLNPHPKPNPKNN
MCF7; [10]
  percentage of EdU-negative: 24.7 ± 1.3%
MCF7; [11]
  percentage of EdU-negative: 25.9 ± 1.7%
hTERT-HMEC; [10]
  percentage of EdU-negative: 4.74 ± 1.5%
hTERT-HMEC; [11]
  percentage of EdU-negative: 5.8 ± 0.29%
